Results published in patent US10562947B2, “Compositions and methods for preventing or treating diseases, conditions or processes characterized by aberrant fibroblast proliferation and extracellular matrix deposition” (MOERAE MATRIX, INC., priority 2011, dated 2020).

How the values were obtained:
Test in all cases: Kinase Profiling Assay
Format in all cases: biochemical
Details in all cases: 100 μM peptide
[1] = biological target: MINK(h) (Homo sapiens, UniProt Q8N4C8)
Summary of the method: (§1)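 Read-out is kinase activity, measured twice per kinase, across 266 human kinases exposed to MK2 inhibitory peptides in a specificity screen.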

[2] = biological target: Mnk2(h) (Homo sapiens, UniProt Q9HBH9)
Summary of the method: as §1

[3] = biological target: T1, EphA8(h) (Homo sapiens, UniProt P29322)
T1 sequence (P29322 28-1005): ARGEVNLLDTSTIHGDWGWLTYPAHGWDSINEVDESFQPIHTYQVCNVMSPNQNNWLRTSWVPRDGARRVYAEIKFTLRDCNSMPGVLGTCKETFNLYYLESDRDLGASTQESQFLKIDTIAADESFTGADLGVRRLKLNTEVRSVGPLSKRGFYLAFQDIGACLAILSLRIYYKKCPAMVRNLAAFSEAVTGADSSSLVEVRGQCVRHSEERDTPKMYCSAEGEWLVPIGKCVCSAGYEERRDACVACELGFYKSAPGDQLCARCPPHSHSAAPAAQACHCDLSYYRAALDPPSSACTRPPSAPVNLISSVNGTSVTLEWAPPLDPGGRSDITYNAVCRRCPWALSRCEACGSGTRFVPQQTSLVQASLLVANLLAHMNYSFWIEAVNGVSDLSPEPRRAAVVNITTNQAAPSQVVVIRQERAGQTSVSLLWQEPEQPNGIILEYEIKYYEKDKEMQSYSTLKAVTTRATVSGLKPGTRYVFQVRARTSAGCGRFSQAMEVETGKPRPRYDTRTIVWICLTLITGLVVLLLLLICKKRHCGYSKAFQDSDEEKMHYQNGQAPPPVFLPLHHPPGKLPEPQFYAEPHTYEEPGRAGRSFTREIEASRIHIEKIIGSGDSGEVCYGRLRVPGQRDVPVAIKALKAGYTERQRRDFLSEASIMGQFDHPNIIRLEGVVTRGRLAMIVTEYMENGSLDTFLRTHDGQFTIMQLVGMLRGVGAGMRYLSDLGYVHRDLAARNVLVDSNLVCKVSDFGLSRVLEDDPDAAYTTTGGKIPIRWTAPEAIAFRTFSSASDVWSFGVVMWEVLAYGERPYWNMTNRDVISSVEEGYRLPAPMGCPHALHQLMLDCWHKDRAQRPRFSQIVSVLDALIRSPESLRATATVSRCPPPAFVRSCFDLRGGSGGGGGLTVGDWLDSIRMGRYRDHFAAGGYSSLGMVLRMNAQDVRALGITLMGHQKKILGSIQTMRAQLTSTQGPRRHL
Summary of the method: as §1

[4] = biological target: BTK(h) (Homo sapiens, UniProt Q06187)
Summary of the method: as §1

[5] = biological target: EGFR(L858R)(h) (Homo sapiens, UniProt P00533, L858R)
Summary of the method: as §1

[6] = biological target: mTOR/FKBP12(h) (Homo sapiens, UniProt P42345)
Summary of the method: as §1

[7] = biological target: Pim-3(h) (Homo sapiens, UniProt Q86V86)
Summary of the method: as §1

[8] = biological target: PKCβII(h) (Homo sapiens, UniProt P05771)
Summary of the method: as §1

[9] = biological target: PKBα(h) (Homo sapiens, UniProt P31749)
Summary of the method: as §1

[10] = biological target: T2, SGK3(h) (Homo sapiens, UniProt Q96BR1)
T2 sequence (Q96BR1 1-496): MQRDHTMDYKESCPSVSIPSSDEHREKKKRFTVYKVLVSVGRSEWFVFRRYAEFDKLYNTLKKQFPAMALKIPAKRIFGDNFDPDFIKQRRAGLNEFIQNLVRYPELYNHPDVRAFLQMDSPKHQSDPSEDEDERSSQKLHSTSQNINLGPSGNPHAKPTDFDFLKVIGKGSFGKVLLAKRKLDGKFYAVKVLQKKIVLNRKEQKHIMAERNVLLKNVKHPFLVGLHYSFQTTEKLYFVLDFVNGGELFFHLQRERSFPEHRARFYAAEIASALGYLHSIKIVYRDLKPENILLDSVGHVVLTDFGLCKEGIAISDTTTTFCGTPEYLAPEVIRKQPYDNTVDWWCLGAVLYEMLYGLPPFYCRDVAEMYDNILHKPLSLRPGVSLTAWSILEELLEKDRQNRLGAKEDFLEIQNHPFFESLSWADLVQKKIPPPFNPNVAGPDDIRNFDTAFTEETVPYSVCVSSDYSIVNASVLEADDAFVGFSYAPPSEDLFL
Summary of the method: as §1

[11] = biological target: CaMKIIγ(h) (Homo sapiens, UniProt Q13555)
Summary of the method: as §1

[12] = biological target: CDK5/p25(h) (Homo sapiens, UniProt Q00535)
Summary of the method: as §1

[13] = biological target: CDK7/cyclinH/MAT1(h) (Homo sapiens, UniProt P50613)
Summary of the method: as §1

[14] = biological target: Met(M1268T)(h) (Homo sapiens, UniProt P08581, M1250T)
Summary of the method: as §1

[15] = biological target: p70S6K(h) (Homo sapiens, UniProt P23443)
Summary of the method: as §1

[16] = biological target: DAPK2(h) (Homo sapiens, UniProt Q9UIK4)
Summary of the method: as §1

[17] = biological target: T3, TAK1(h) (Homo sapiens, UniProt O43318)
T3 sequence (O43318 1-303 limits assumed): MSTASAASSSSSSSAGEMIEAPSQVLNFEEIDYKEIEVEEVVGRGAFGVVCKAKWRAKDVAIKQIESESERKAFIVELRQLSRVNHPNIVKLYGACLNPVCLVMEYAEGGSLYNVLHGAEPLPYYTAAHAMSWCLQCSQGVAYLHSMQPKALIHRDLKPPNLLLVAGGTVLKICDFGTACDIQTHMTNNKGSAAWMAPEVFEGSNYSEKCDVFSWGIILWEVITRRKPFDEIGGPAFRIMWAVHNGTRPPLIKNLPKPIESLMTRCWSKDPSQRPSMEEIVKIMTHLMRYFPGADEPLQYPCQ
Summary of the method: as §1

Sequence of PKCβII(h) (P05771 1-673 isoform P05771-2): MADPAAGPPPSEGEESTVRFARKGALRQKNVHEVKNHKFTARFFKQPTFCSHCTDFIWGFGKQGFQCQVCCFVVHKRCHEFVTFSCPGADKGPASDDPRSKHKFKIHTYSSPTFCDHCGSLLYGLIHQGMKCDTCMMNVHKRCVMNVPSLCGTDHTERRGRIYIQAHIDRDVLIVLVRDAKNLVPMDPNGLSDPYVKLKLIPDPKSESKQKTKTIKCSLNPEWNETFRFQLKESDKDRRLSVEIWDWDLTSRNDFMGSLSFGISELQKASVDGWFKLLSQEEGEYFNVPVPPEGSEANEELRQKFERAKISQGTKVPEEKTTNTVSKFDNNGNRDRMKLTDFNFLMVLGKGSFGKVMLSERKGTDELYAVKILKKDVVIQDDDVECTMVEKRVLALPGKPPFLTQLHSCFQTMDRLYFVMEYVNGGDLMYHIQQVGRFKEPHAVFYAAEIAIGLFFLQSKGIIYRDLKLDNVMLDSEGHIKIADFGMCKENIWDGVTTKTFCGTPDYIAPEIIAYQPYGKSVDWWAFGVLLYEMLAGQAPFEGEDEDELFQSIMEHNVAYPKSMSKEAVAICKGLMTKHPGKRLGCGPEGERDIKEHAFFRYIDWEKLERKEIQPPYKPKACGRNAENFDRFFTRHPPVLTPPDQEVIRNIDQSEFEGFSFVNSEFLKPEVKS
Sequence of DAPK2(h) (Q9UIK4 whole entry): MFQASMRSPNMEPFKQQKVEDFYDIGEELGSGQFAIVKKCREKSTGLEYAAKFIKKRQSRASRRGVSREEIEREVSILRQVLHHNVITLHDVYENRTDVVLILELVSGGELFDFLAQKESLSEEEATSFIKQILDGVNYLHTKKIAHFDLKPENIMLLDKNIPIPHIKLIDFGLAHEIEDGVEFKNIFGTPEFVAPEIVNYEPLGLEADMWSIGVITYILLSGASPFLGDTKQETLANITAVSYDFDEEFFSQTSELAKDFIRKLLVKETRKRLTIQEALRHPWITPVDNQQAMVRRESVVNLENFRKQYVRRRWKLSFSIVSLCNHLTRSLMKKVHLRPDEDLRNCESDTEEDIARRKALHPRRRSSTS
Sequence of CDK5/p25(h) (Q00535 whole entry): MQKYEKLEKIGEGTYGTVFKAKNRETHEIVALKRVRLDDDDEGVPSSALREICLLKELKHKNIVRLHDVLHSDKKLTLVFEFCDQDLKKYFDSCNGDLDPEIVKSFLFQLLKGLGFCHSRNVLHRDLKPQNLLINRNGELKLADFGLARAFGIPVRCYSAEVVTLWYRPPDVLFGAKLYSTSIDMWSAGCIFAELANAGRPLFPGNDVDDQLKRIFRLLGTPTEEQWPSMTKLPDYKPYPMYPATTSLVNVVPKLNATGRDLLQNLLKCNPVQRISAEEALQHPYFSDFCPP
Sequence of CDK5/p25(h) (Q15078 99-307 partner limits assumed): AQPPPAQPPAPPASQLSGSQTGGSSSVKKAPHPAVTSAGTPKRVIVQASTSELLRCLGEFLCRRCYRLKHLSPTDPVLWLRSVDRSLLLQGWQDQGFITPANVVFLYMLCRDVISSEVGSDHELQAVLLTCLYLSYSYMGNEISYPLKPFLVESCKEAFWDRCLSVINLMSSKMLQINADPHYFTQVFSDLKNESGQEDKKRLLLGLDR
Sequence of mTOR/FKBP12(h) (P42345 1362-2549 limits assumed): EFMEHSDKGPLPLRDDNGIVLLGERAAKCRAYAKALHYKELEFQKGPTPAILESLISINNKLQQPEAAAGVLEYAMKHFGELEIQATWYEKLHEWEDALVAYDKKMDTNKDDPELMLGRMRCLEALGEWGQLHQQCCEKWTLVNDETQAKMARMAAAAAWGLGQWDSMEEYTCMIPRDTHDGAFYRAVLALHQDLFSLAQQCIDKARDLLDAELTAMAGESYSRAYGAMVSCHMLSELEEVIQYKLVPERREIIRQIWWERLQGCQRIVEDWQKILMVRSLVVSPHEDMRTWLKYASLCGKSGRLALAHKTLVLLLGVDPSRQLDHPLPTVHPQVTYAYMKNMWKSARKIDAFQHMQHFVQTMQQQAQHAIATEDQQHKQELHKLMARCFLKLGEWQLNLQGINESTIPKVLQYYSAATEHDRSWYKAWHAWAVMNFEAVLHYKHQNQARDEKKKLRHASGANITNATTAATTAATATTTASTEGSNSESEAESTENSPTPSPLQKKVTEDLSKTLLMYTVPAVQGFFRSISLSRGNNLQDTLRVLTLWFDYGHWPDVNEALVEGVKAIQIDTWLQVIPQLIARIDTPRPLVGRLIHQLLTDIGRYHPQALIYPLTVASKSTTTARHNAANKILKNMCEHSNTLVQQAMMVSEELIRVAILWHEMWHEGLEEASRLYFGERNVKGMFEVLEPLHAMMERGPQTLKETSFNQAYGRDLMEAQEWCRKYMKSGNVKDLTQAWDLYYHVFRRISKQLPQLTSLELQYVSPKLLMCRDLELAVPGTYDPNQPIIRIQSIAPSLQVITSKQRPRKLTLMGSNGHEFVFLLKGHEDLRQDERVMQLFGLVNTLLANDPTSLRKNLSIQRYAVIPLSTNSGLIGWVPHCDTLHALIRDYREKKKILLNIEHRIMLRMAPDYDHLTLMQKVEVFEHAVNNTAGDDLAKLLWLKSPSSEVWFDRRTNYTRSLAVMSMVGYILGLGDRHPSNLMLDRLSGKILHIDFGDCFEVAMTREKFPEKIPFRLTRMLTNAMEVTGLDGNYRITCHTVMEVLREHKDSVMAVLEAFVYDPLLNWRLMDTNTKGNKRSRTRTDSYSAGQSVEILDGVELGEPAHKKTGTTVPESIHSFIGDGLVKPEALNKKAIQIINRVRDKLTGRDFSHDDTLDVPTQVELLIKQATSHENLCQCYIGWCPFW
Sequence of MINK(h) (Q8N4C8 whole entry): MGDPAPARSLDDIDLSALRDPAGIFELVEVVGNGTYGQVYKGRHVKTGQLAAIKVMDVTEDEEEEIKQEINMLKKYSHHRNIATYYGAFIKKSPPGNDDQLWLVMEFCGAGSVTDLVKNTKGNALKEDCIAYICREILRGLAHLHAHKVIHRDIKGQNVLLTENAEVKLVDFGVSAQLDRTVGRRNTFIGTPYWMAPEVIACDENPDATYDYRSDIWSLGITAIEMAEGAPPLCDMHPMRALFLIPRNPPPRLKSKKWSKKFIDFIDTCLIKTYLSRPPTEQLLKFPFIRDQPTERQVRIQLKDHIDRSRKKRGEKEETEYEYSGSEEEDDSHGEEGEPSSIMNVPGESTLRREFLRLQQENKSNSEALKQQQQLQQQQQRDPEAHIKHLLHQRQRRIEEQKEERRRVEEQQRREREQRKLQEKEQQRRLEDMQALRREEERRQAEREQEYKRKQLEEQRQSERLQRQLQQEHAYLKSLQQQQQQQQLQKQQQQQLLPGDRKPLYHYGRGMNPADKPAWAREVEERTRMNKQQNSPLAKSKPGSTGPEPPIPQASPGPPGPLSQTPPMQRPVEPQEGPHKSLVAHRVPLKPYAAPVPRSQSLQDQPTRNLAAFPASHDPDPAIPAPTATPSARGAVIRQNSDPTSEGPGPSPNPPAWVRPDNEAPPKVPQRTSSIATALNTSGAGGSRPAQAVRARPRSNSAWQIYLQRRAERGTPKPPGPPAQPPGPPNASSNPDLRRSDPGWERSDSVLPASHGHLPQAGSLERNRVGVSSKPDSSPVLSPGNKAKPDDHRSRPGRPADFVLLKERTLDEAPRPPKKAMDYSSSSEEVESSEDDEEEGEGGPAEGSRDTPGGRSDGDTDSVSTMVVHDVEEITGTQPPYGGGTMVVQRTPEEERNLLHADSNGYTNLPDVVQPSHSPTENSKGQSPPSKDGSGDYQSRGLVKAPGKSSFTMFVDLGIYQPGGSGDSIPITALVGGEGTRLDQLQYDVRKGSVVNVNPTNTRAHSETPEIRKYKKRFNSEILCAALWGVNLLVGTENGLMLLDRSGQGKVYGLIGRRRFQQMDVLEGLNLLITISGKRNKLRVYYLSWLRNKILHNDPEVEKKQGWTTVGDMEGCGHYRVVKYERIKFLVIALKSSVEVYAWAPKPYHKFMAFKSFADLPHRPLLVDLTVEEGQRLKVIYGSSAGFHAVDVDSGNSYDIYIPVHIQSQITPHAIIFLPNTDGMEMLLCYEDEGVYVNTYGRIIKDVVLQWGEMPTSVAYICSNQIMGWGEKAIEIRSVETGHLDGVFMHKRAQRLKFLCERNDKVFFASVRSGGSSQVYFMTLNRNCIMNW
Sequence of PKBα(h) (P31749 whole entry): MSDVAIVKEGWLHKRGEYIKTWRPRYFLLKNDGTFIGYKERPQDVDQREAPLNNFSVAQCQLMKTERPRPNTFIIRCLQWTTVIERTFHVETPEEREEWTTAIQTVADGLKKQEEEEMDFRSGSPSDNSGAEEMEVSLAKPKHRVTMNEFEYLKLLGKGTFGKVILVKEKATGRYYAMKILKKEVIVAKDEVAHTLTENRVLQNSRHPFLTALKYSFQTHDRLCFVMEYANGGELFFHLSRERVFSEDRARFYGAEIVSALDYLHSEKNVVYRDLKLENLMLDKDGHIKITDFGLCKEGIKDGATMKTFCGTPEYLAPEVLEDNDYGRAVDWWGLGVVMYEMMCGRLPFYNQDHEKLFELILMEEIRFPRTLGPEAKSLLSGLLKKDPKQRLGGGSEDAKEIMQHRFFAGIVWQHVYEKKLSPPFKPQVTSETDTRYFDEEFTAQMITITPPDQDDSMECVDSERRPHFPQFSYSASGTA
Sequence of Mnk2(h) (Q9HBH9 whole entry): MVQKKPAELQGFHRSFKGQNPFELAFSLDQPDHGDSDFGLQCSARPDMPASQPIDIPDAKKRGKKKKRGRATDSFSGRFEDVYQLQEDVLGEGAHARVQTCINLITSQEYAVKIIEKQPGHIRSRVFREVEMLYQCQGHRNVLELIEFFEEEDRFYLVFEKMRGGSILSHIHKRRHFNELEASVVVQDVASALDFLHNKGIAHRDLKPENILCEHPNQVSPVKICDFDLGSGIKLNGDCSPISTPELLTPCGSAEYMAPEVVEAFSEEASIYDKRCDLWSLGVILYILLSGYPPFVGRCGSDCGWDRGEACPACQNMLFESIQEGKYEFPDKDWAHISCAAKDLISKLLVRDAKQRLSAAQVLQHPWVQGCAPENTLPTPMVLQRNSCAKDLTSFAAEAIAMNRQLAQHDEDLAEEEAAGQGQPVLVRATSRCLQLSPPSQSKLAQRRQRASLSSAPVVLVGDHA

HRRIKAWLKKIKALARQLGVAA (Mammalian) [MMI-0500]
MINK(h) % activity [1]: 5% | Mnk2(h) % activity [2]: 6% | EphA8(h) % activity [3]: 337% | BTK(h) % activity [4]: 18% | EGFR(L858R)(h) % activity [5]: 26% | mTOR/FKBP12(h) % activity [6]: 140% | Pim-3(h) % activity [7]: 37% | PKCβII(h) % activity [8]: 3% | PKBα(h) % activity [9]: 30% | SGK3(h) % activity [10]: −3% | CaMKIIγ(h) % activity [11]: 3% | CDK5/p25(h) % activity [12]: 66% | CDK7/cyclinH/MAT1(h) % activity [13]: 15% | Met(M1268T)(h) % activity [14]: 239% | p70S6K(h) % activity [15]: 3% | DAPK2(h) % activity [16]: 3%

FAKLAARLYRKALARQLGVAA [MMI-0300]
MINK(h) % activity [1]: 48% | Mnk2(h) % activity [2]: 89% | EphA8(h) % activity [3]: 93% | TAK1(h) % activity [17]: 122% | mTOR/FKBP12(h) % activity [6]: 145% | Pim-3(h) % activity [7]: 80% | PKCβII(h) % activity [8]: 82% | PKBα(h) % activity [9]: 57% | SGK3(h) % activity [10]: 10% | CaMKIIγ(h) % activity [11]: 5% | CDK5/p25(h) % activity [12]: 89% | CDK7/cyclinH/MAT1(h) % activity [13]: 65% | Met(M1268T)(h) % activity [14]: 255% | p70S6K(h) % activity [15]: 35% | DAPK2(h) % activity [16]: 32%

YARAAARQARAKALNRQLGVA (Mammalian) [MMI-0200]
EphA8(h) % activity [3]: 133% | TAK1(h) % activity [17]: 124% | BTK(h) % activity [4]: 100% | EGFR(L858R)(h) % activity [5]: 120% | mTOR/FKBP12(h) % activity [6]: 118% | Pim-3(h) % activity [7]: 94% | PKCβII(h) % activity [8]: 100% | PKBα(h) % activity [9]: 110% | SGK3(h) % activity [10]: 58% | CaMKIIγ(h) % activity [11]: 94% | CDK5/p25(h) % activity [12]: 97% | CDK7/cyclinH/MAT1(h) % activity [13]: 67% | Met(M1268T)(h) % activity [14]: 143% | p70S6K(h) % activity [15]: 84% | DAPK2(h) % activity [16]: 92%

KAFAKLAARLYRKALARQLGVAA [MMI-0400]
MINK(h) % activity [1]: 52% | Mnk2(h) % activity [2]: 86% | EphA8(h) % activity [3]: 146% | TAK1(h) % activity [17]: 177% | BTK(h) % activity [4]: 94% | EGFR(L858R)(h) % activity [5]: 52% | mTOR/FKBP12(h) % activity [6]: 125% | Pim-3(h) % activity [7]: 80% | PKCβII(h) % activity [8]: 75% | PKBα(h) % activity [9]: 67% | SGK3(h) % activity [10]: 8% | CaMKIIγ(h) % activity [11]: 3% | CDK5/p25(h) % activity [12]: 92% | CDK7/cyclinH/MAT1(h) % activity [13]: 47% | Met(M1268T)(h) % activity [14]: 265% | p70S6K(h) % activity [15]: 33% | DAPK2(h) % activity [16]: 16%
